Key:
[1] = molecular target: human Unc5B-His (two N-terminal Ig-like domains of Unc5B, amino acid M1 to amino acid V243, C-terminal Histidine tag) (human) (UniProt Q8IZJ1); assay: SPR (ProteOn XPR36), antibody immobilised, human Unc5B-His as analyte
Murine Unc5B (mouse) = Murine Unc5B (mouse) (UniProt Q8K1S3); assay: SPR (ProteOn XPR36), antibody immobilised, murine Unc5B-His as analyte
Chain of Murine Unc5B (mouse) (Q8K1S3 27-243 limits assumed, form in doubt): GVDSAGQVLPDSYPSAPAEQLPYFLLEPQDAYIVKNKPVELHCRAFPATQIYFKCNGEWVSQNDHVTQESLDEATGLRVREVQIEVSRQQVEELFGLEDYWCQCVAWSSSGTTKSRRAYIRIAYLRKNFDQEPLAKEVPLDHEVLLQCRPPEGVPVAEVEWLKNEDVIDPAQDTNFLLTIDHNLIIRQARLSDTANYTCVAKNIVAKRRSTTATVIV

B1: YW 88.7 (antibody, part only; not given: constant regions, part only)
heavy chain, part: EVQLVESGGGLVQPGGSLRLSCAASGFTFSDNWISWVRQAPKGLEWVGGIYPAGGYTYYADSVKGRFTISADTSKNTAYLQMSLRAEDTAVYYCAHDIHTRIAVMDYWGQGTLVTVSS
light chain: DIQMTQSPSSLSASVGDRVTITCRASQDVSTAVAWYQQKPGKAPKLLIYSASFLYSGVPSRFSGSGSGTDFTLTISSLQPEDFATYYCQQSYTTPPTFGQGTKVEIKR
Kd [1]: 20 nM
Kd (Murine Unc5B (mouse)): 1.1 nM

B2: YW 88.64 (antibody, part only; not given: constant regions, part only)
heavy chain, part: EVQLVESGGGLVQPGGSLRLSCAASGFTFSNSGISWVRQAPKGLEWVGYIYPDNGSTNYADSVKGRFTISADTSKNTAYLQMSLRAEDTAVYYCARGVWWFDYWGQGTLVTVSS
light chain: DIQMTQSPSSLSASVGDRVTITCRASQDVSTAVAWYQQKPGKAPKLLIYSASFLYSGVPSRFSGSGSGTDFTLTISSLQPEDFATYYCQQSYTTPPTFGQGTKVEIKR
Kd [1]: 84 nM

B3: YW 83.4 (antibody, part only; not given: constant regions, part only)
heavy chain, part: EVQLVESGGGLVQPGGSLRLSCAASGFTFTNYDIHWVRQAPKGLEWVGWISPSGGYTNYADSVKGRFTISADTSKNTAYLQMSLRAEDTAVYYCARQLWAVRGWVMDYWGQGTLVTVSS
light chain: DIQMTQSPSSLSASVGDRVTITCRASQDVSTAVAWYQQKPGKAPKLLIYSASFLYSGVPSRFSGSGSGTDFTLTISSLQPEDFATYYCQQSYTTPPTFGQGTKVEIKR
Kd [1]: 2.9 nM

B4: YW 83.7 (antibody, part only; not given: constant regions, part only)
heavy chain, part: EVQLVESGGGLVQPGGSLRLSCAASGFTFTGSSIHWVRQAPKGLEWVGWITPNGGYTNYADSVKGRFTISADTSKNTAYLQMSLRAEDTAVYYCARQSWVLRGWAMDYWGQGTLVTVSS
light chain: DIQMTQSPSSLSASVGDRVTITCRASQDVSTAVAWYQQKPGKAPKLLIYSASFLYSGVPSRFSGSGSGTDFTLTISSLQPEDFATYYCQQSYTTPPTFGQGTKVEIKR
Kd [1]: 4.1 nM

Source: patent publication US20100221262A1
